According to patent US20190162720A1:

How the values were obtained:
[1] = target: anti-biotin monoclonal antibody (Abcam plc., ab36406, Mouse monoclonal); assay: SPR Biacore T200; protein A/G (six domains) 100 µg/mL fed over anti-biotin monoclonal antibody on the biotin-PEG chip (Example 13)
[2] = target: anti-adiponectin antibody (R&D Systems, Inc., Human Adiponectin/Acrp30 Antibody, Monoclonal Mouse IgG2B, MAB10651); assay: SPR Biacore T200; anti-adiponectin antibody 100 µg/mL fed over protein A/G held on the first antibody (Example 2)
[3] = target: anti-BSA antibody (Bioss Inc., bs-0292R, polyclonal antibody); assay: SPR Biacore T200; protein A/G (six domains) 100 µg/mL fed over anti-BSA antibody on the chip (Example 15)
[4] = target: anti-CRP antibody (R&D Systems, Inc., Human C-Reactive protein Antibody, Monoclonal Mouse IgG2B, MAB17071-500); assay: SPR Biacore T200; anti-CRP antibody 100 µg/mL fed over protein A/G held on anti-BSA antibody (Example 15)
[5] = target: anti-CRP antibody (R&D Systems, Inc., Human C-Reactive protein Antibody, Monoclonal Mouse IgG2B, MAB17071-500); assay: SPR Biacore T200; anti-CRP antibody 100 µg/mL fed over protein A/G held on anti-mPEG antibody (Example 10)
[6] = target: anti-CRP antibody (R&D Systems, Inc., Human C-Reactive protein Antibody, Monoclonal Mouse IgG2B, MAB17071-500); assay: SPR Biacore T200; anti-CRP antibody 100 µg/mL fed over protein A/G held on anti-BSA antibody (Example 17)
[7] = target: anti-biotin monoclonal antibody (Abcam plc., ab36406, Mouse monoclonal); assay: SPR Biacore T200; protein A/G (six domains) 25 µg/mL fed over anti-biotin monoclonal antibody on the chip (Example 7)
[8] = target: anti-CRP antibody (R&D Systems, Inc., Human C-Reactive protein Antibody, Monoclonal Mouse IgG2B, MAB17071-500); assay: SPR Biacore T200; anti-CRP antibody 100 µg/mL fed over protein A/G held on anti-biotin antibody (Example 12)
[9] = target: anti-mPEG monoclonal antibody (Abcam plc., ab51257, Mouse monoclonal, Anti-Polyethylene glycol antibody [PEG-B-47]); assay: SPR Biacore T200; protein A/G (six domains) 101 µg/mL fed over anti-mPEG antibody on the mPEG chip (Example 9)
[10] = target: anti-CRP antibody (R&D Systems, Inc., Human C-Reactive protein Antibody, Monoclonal Mouse IgG2B, MAB17071-500); assay: SPR Biacore T200; anti-CRP antibody 100 µg/mL fed over protein A/G held on the first antibody (Example 7)
[11] = target: anti-CRP antibody (R&D Systems, Inc., Human C-Reactive protein Antibody, Monoclonal Mouse IgG2B, MAB17071-500); assay: SPR Biacore T200; anti-CRP antibody 100 µg/mL fed over protein A/G held on anti-biotin antibody (Example 13)
[12] = target: anti-biotin antibody (Abcam plc., ab53494, Rabbit polyclonal); assay: SPR Biacore T200; protein A/G 100 µg/mL fed over anti-biotin antibody on the chip (Example 4)
[13] = target: anti-adiponectin antibody (R&D Systems, Inc., Human Adiponectin/Acrp30 Antibody, Monoclonal Mouse IgG2B, MAB10651); assay: SPR Biacore T200; anti-adiponectin antibody 100 µg/mL fed over protein A/G held on the first antibody (Example 5)
[14] = target: anti-biotin antibody (Abcam plc., ab53494, Rabbit polyclonal); assay: SPR Biacore T200; protein A/G 100 µg/mL fed over anti-biotin antibody on the chip (Example 2)
[15] = target: anti-adiponectin antibody (R&D Systems, Inc., Human Adiponectin/Acrp30 Antibody, Monoclonal Mouse IgG2B, MAB10651); assay: SPR Biacore T200; anti-adiponectin antibody 100 µg/mL fed over protein A/G held on the first antibody (Example 3)
[16] = target: anti-adiponectin antibody (R&D Systems, Inc., Human Adiponectin/Acrp30 Antibody, Monoclonal Mouse IgG2B, MAB10651); assay: SPR Biacore T200; anti-adiponectin antibody 100 µg/mL fed over protein A/G held on the first antibody (Example 4)
[17] = target: anti-BSA antibody (Bioss Inc., bs-0292R, polyclonal antibody); assay: SPR Biacore T200; protein A/G (six domains) 100 µg/mL fed over anti-BSA antibody on the chip (Example 17)
[18] = target: anti-mPEG monoclonal antibody (Abcam plc., ab51257, Mouse monoclonal, Anti-Polyethylene glycol antibody [PEG-B-47]); assay: SPR Biacore T200; protein A/G (six domains) 1,000 µg/mL fed over anti-mPEG antibody on the mPEG chip (Example 10)
[19] = target: anti-CRP antibody (R&D Systems, Inc., Human C-Reactive protein Antibody, Monoclonal Mouse IgG2B, MAB17071-500); assay: SPR Biacore T200; anti-CRP antibody 100 µg/mL fed over protein A/G held on anti-BSA antibody (Example 16)
[20] = target: anti-streptavidin antibody (R&D Systems, Inc., Streptavidin Antibody, Recombinant Monoclonal Rabbit IgG Clone #1220C, MAB9020); assay: SPR Biacore T200; protein A/G (six domains) 100 µg/mL fed over anti-streptavidin antibody on the chip (Example 14)
[21] = target: anti-BSA antibody (Bioss Inc., bs-0292R, polyclonal antibody); assay: SPR Biacore T200; protein A/G (six domains) 100 µg/mL fed over anti-BSA antibody on the chip (Example 16)
[22] = target: anti-biotin antibody (Abcam plc., ab53494, Rabbit polyclonal); assay: SPR Biacore T200; protein A/G 100 µg/mL fed over anti-biotin antibody on the chip (Example 5)
[23] = target: anti-biotin monoclonal antibody (Abcam plc., ab36406, Mouse monoclonal); assay: SPR Biacore T200; protein A/G (six domains) 100 µg/mL fed over anti-biotin monoclonal antibody on the biotin-PEG chip (Example 12)
[24] = target: anti-CRP antibody (R&D Systems, Inc., Human C-Reactive protein Antibody, Monoclonal Mouse IgG2B, MAB17071-500); assay: SPR Biacore T200; anti-CRP antibody 100 µg/mL fed over protein A/G held on anti-streptavidin antibody (Example 14)
[25] = target: anti-biotin antibody (Abcam plc., ab53494, Rabbit polyclonal); assay: SPR Biacore T200; protein A/G 100 µg/mL fed over anti-biotin antibody on the chip (Example 1)
[26] = target: anti-biotin antibody (Abcam plc., ab53494, Rabbit polyclonal); assay: SPR Biacore T200; protein A/G 100 µg/mL fed over anti-biotin antibody on the chip (Example 3)
[27] = target: anti-adiponectin antibody (R&D Systems, Inc., Human Adiponectin/Acrp30 Antibody, Monoclonal Mouse IgG2B, MAB10651); assay: SPR Biacore T200; anti-adiponectin antibody 100 µg/mL fed over protein A/G held on the first antibody (Example 1)
[28] = target: anti-CRP antibody (R&D Systems, Inc., Human C-Reactive protein Antibody, Monoclonal Mouse IgG2B, MAB17071-500); assay: SPR Biacore T200; anti-CRP antibody 100 µg/mL fed over protein A/G held on anti-mPEG antibody (Example 9)

amount of the protein A/G immobilized [1]: 828 RU
Amount of second antibody immobilized [2]: 935 RU
amount of the protein A/G immobilized [3]: 602 RU
Amount of second antibody immobilized [4]: 2800 RU
Amount of second antibody immobilized [5]: 3450 RU
Amount of second antibody immobilized [6]: 2680 RU
amount of the protein A/G immobilized [7]: 622 RU
Amount of second antibody immobilized [8]: 2330 RU
amount of the protein A/G immobilized [9]: 637 RU
Amount of second antibody immobilized [10]: 2300 RU
Amount of second antibody immobilized [11]: 2890 RU
amount of the protein A/G immobilized [12]: 884 RU
Amount of second antibody immobilized [13]: 1560 RU
amount of the protein A/G immobilized [14]: 718 RU
Amount of second antibody immobilized [15]: 1610 RU
Amount of second antibody immobilized [16]: 1620 RU
amount of the protein A/G immobilized [17]: 507 RU
amount of the protein A/G immobilized [18]: 685 RU
Amount of second antibody immobilized [19]: 2820 RU
amount of the protein A/G immobilized [20]: 716 RU
amount of protein A/G immobilized [21]: 497 RU
amount of the protein A/G immobilized [22]: 890 RU
amount of the protein A/G immobilized [23]: 603 RU
Amount of second antibody immobilized [24]: 3400 RU
amount of the protein A/G immobilized [25]: 558 RU
amount of the protein A/G immobilized [26]: 890 RU
Amount of second antibody immobilized [27]: 1100 RU
Amount of second antibody immobilized [28]: 2840 RU
Substance: protein A/G (Pierce 21186, Recombinant Protein A/G from E. coli, six domains)
